PMC10221975 (Pharmaceutics, 2023)

Target: the molecule itself
Assay: dynamic light scattering; after irradiation of the N2O-saturated solution with 0.1 M NaN3 (oxidation by N3 radicals), 70 μM protein, 25 °C; the species seen are held by covalent bonds (dityrosine)

B1: papain (enzyme, UniProt P00784 134-345, looked up)
chain: IPEYVDWRQKGAVTPVKNQGSCGSCWAFSAVVTIEGIIKIRTGNLNEYSEQELLDCDRRSYGCNGGYPWSALQLVAQYGIHYRNTYPYEGVQRYCRSREKGPYAAKTDGVRQVQPYNEGALLYSIANQPVSVVLEAAGKDFQLYRGGIFVGPCGNKVDHAVAAVGYGPNYILIKNSWGTGWGENGYIRIKRGTGNSYGVCGLYTSSFYPVKN
notes: papain; source: bought: Roth (8933.1), used as received
  stoichiometry N: 2
